According to PMC6853915 (Scientific Reports, 2019):

How the values were obtained:
Conditions in all cases: both partners purified
amyloid-β peptide 1–42 = biological target: T1, amyloid-β peptide 1–42 (human, UniProt P05067 672-713); assay: SPR; cypD held on immobilised Ab(cypD); 17β-HSD10 (100 nM), Aβ1–40 or Aβ1–42 (50-1000 nM, mostly 500 nM) or their mixtures, incubated at 37 °C beforehand (1 hour; or Aβ alone 0-180 min, then 10 min with 17β-HSD10), flowed for 7 or 10 min; HEPES_FINAL (10 mM HEPES, 200 μg/ml BSA, 5 mM Na+, 15 mM K+, 0.1 mM Mg2+, pH 7.4); 25 °C
T1 construct: amyloid-β peptide, residues 1-42 (42 aa), human, cut product of the amyloid precursor protein; numbers count on: the Aβ peptide; Incubated at 37 °C before injection; the authors take it to form oligomers of a size that was not measured; also called Aβ1–42; Aβ_(1–42); source: synthetic peptide; bought: AnaSpec, USA
T1 sequence (P05067 672-713): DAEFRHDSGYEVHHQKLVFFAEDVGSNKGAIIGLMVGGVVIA

amyloid-β peptide 1–40 = biological target: T2, amyloid-β peptide 1–40 (human, UniProt P05067 672-711); assay: as above
T2 construct: amyloid-β peptide, residues 1-40 (40 aa), human, cut product of the amyloid precursor protein; numbers count on: the Aβ peptide; The authors take it to stay monomeric under the conditions used; also called Aβ1–40; Aβ_(1–40); source: synthetic peptide; bought: AnaSpec, USA
T2 sequence (P05067 672-711): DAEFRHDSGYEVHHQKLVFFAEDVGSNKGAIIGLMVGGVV

[1] = biological target: T3, 17beta-hydroxysteroid dehydrogenase type 10 (human, UniProt Q99714 1-261); assay: SPR; cypD held on immobilised Ab(cypD); 100 nM 17β-HSD10 flowed for 7 min; 10 mM HEPES, 200 μg/ml BSA, 5 mM Na+, pH 7.4 or 7.8, with K+ (up to 140 mM), Mg2+ or Ca2+ (up to 2.5 mM) alone or K+ and Mg2+ combined; 25 °C; reference channel without cypD
T3 construct: the oligomeric state was not measured; also called 17β-HSD10; 17beta-hydroxysteroide dehydrogenase 10; source: bought: Fitzgerald, USA (human, recombinant)
T3 sequence (looked up): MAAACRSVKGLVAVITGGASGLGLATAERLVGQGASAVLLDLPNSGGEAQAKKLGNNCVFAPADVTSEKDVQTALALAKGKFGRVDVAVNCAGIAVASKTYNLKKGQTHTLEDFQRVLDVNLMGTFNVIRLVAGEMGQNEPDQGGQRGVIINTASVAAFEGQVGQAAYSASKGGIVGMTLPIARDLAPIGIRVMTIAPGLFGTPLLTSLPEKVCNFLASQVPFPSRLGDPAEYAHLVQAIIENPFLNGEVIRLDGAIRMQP

- binding result (amyloid-β peptide 1–42): binds
- binding result (amyloid-β peptide 1–40): binds
- binding result [1]: binds
B1: cyclophilin D (enzyme)
chain: not shown
notes: cyclophilin D (cypD), human, recombinant; Held on the chip through an immobilised antibody against cypD; also called cypD; source: bought: Fitzgerald, USA (human, recombinant)
